Legend:
[1] = target: His-tagged NanoLuc-PP1α-HaloTag sensor (PP1-WT) (human, UniProt P62136 1-330, NanoBRET 618 ligand on the HaloTag); test: FRET or BRET
LgBiT-PP1α^WT = LgBiT-PP1α^WT (human, UniProt P62136 1-330); test: split reporter
LgBiT-PP1α^ΔC = LgBiT-PP1α^ΔC (human, UniProt P62136 1-298); test: split reporter
Chain of LgBiT-PP1α^ΔC (P62136 1-298, stated change not applied): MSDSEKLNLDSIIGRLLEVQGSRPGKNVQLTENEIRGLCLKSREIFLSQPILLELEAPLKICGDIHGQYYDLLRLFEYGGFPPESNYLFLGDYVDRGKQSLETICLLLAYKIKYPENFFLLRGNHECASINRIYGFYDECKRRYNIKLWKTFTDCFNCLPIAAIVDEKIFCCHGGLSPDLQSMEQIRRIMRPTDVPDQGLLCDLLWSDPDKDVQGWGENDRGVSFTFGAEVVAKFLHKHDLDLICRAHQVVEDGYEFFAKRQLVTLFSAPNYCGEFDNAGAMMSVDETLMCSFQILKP

Chain of His-tagged NanoLuc-PP1α-HaloTag sensor (PP1-WT) (P62136 whole entry): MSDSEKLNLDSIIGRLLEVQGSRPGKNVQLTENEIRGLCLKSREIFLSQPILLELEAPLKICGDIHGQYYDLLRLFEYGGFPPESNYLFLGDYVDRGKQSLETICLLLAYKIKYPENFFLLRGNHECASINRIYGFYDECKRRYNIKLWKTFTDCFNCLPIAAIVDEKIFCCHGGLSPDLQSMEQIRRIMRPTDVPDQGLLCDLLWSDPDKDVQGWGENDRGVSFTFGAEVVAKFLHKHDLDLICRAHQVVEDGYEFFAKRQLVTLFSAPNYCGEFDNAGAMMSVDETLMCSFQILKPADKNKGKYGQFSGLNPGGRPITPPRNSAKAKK
Chain of LgBiT-PP1α^WT (P62136 whole entry): as above

Binder	binding result [1]	binding result (LgBiT-PP1α^WT)	binding result (LgBiT-PP1α^ΔC)
HIS-ASPP1-(867–1090) (domain or fragment) RTNLKKPNSERTGHGLRVRFNPLALLLDASLEGEFDLVQRIIYEVEDPSKPNDEGITPLHNAVCAGHHHIVKFLLDFGVNVNAADSDGWTPLHCAASCNSVHLCKQLVESGAAIFASTISDIETAADKCEEMEEGYIQCSQFLYGVQEKLGVMNKGVAYALWDYEAQNSDELSFHEGDALTILRRKDESETEWWWARLGDREGYVPKNLLGLYPRIKPRQRTLA	binds	–	–
HIS-R2-WT (natural protein) MAASTASHRPIKGILKNKTSTTSSMVASAEQPRGNVDEELSKKSQKWDEMNILATYHPADKDYGLMKIDEPSTPYHSMMGDDEDACSDTEATEAMAPDILARKLAAAEGLEPKYRIQEQESSGEEDSDLSPEEREKKRQFEMKRKLHYNEGLNIKLARQLISKDLHDDDEDEEMLETADGESMNTEESNQGSTPSDQQQNKLRSS	binds	binds	binds

Reference: paper PMC11561318 (Nature Communications, 2024)
